In patent US20240392020A1 (JIANGSU HENGRUI PHARMACEUTICALS, published 2024):
Positions count from the first letter of the chain named.

T1: B7H3 on the recombinant cell line CT26-B7H3 (UniProt Q5ZPR3 29-534, limits assumed)
T1 construct: whole, on cells
T1 sequence (looked up): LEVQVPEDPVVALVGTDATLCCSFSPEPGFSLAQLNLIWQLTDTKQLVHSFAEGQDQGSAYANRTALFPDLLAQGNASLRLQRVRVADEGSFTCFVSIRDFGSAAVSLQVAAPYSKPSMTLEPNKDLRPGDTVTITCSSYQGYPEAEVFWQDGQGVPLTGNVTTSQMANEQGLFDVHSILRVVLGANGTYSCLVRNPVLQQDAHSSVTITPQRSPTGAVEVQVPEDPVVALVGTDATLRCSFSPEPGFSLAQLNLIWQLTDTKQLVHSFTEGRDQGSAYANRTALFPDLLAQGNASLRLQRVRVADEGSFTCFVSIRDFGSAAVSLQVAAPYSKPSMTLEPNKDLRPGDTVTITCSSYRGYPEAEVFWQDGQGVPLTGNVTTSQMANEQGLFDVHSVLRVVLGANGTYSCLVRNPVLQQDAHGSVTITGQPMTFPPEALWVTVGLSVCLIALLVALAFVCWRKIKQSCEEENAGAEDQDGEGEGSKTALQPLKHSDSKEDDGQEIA

T2: CEA on MKN45 cells (UniProt P06731 35-685)
T2 construct: whole, on cells
T2 sequence (looked up): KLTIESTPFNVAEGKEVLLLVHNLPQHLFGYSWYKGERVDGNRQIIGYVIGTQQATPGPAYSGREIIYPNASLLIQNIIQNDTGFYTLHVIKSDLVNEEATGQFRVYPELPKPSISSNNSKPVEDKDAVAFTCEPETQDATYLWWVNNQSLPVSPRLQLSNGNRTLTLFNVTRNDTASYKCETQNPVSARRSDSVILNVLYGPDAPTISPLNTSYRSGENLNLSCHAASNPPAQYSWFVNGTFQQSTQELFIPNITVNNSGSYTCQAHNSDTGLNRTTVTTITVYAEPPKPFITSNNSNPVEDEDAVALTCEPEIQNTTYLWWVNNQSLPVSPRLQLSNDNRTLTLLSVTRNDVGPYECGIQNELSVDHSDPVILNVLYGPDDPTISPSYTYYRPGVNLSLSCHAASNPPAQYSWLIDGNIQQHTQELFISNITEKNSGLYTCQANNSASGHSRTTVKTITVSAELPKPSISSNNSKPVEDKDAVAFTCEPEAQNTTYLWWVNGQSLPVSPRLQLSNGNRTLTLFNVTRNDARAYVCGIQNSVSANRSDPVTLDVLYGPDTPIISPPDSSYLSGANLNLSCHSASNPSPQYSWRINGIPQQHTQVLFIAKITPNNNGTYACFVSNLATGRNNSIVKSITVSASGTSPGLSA

B1: H11 (antibody)
heavy: not shown
light: DIQMTQSPSSVSASVGDRVTITCRASQDIANYLSWYQQKPGKSPKLLIYGTSNLEVGVPSRFSGSRSGTDFTLTISSLQPEDFATYYCLQDKEFPRTFGGGTKVEIKQGSPPEFLRFPRPVRVVSGAEAELKCVVLGEPPPVVVWEKGGQQLAASERLSFPADGAEHGLLLTAALPTDAGCYVCRARNAAGEAYAAAAVTVLEPP
B2: H15 (antibody)
heavy: not shown
light: B1 light with C133S, C181V, C184S, A193C
B3: H12 (antibody)
heavy: not shown
light: B1 light with C181V, G191C
B4: H14 (antibody)
heavy: not shown
light: B1 light with C133S, C184S
B5: H13 (antibody)
heavy: not shown
light: B1 light with C181V, A193C
B6: R7 (antibody)
heavy: not shown
light: DIQMTQSPSSLSASVGDRVTITCLASEGISSYLAWYQQKPGKAPKLLIYGANSLQTGVPSRFSGSGSATDYTLTISSLQPEDFATYYCQQSYKFPNTFGQGTKVEVKSGAPRFLTRPKAFVVSVGKDATLSCQIVGNPTPQVSWEKDQQPVAAGARFRLAQDGDLYRLTILDLALGDSGQYVCRARNAIGEAFACVGLQVDAEA
B7: R12 (antibody)
heavy: not shown
light: B6 light with R116C, C132S, C183S, C195A
B8: R11 (antibody)
heavy: not shown
light: B6 light with A110C, C132S, C183S, C195A
B9: R9 (antibody)
heavy: not shown
light: B6 light with R116C, C195A
B10: R8 (antibody)
heavy: not shown
light: B6 light with A110C, C195A
B11: H5 (antibody)
heavy: not shown
light: DIQMTQSPSSVSASVGDRVTITCRASQDIANYLSWYQQKPGKSPKLLIYGTSNLEVGVPSRFSGSRSGTDFTLTISSLQPEDFATYYCLQDKEFPRTFGGGTKVEIKSGAPRFLTRPKAFVVSVGKDATLSCQIVGNPTPQVSWEKDQQPVAAGARFRLAQDGDLYRLTILDLALGDSGQYVCRARNAIGEAFACVGLQVDAEA
B12: H10 (antibody)
heavy: not shown
light: B11 light with R116C, C132S, C183S, C195A
B13: H8 (antibody)
heavy: not shown
light: B11 light with C132S, C183S
B14: H6 (antibody)
heavy: not shown
light: B11 light with A110C, C195A
B15: H9 (antibody)
heavy: not shown
light: B11 light with A110C, C132S, C183S, C195A
B16: H7 (antibody)
heavy: not shown
light: B11 light with R116C, C195A
B17: F32 (antibody)
heavy: not shown
light: DTVVTQEPSFSVSPGGTVTLTCGLSSGSVSTSHYPSWYQQTPGQAPRMLIYNTNTRSSGVPDRFSGSILGNKAALTITGAQADDESDYYCAIHVDRDIWVFGGGTKLTVLGGGGSGGGGSSGAPRFLTRPKAFVVSVGKDATLSSQIVGNPTPQVSWEKDQQPVAAGARFRLAQDGDLYRLTILDLALGDSGQYVSRARNAIGEAFACVGLQVDAEA
B18: F34 (antibody)
heavy: not shown
light: B17 light
B19: F18 (antibody)
heavy: not shown
light: DTVVTQEPSFSVSPGGTVTLTCGLSSGSVSTSHYPSWYQQTPGQAPRMLIYNTNTRSSGVPDRFSGSILGNKAALTITGAQADDESDYYCAIHVDRDIWVFGGGTKLTVLSGAPRFKTRPKAFVVSVGKDATLSSQIVGNPTPQVSWEKDQQPVAAGARFRLAQDGDLYRLHILDLALGDSGQYVSRARNAIGEAFACVGLQVDAEA
B20: F16 (antibody)
heavy: not shown
light: B19 light with K117L, H172T
B21: F20 (antibody)
heavy: not shown
light: B19 light with K117L, K121L, H172K
B22: F19 (antibody)
heavy: not shown
light: B19 light
B23: F21 (antibody)
heavy: not shown
light: B19 light with K117L, K121L, H172K
B24: F23 (antibody)
heavy: not shown
light: B19 light with K117L, K121L
B25: F22 (antibody)
heavy: not shown
light: B19 light with K117L, K121L
B26: F17 (antibody)
heavy: not shown
light: B19 light with H172K
B27: F24 (antibody)
heavy: not shown
light: DTVVTQEPSFSVSPGGTVTLTCGLSSGSVSTSHYPSWYQQTPGQAPRMLIYNTNTRSSGVPDRFSGSILGNKAALTITGAQADDESDYYCAIHVDRDIWVFGGGTKLTVLDQPQFSGAPRFKTRPKAFVVSVGKDATLSSQIVGNPTPQVSWEKDQQPVAAGARFRLAQDGDLYRLKILDLALGDSGQYVSRARNAIGEAFACVGLQVDAEA
B28: F25 (antibody)
heavy: not shown
light: B27 light
B29: F33 (antibody)
heavy: not shown
light: B27 light with D111G, Q112G, P113G, Q114G, F115S, K122L, K177T
B30: F29 (antibody)
heavy: not shown
light: B27 light with K122R
B31: F27 (antibody)
heavy: not shown
light: B27 light with K177H
B32: F26 (antibody)
heavy: not shown
light: B27 light with K177H
B33: F30 (antibody)
heavy: not shown
light: B27 light with K122R, K177H
B34: F31 (antibody)
heavy: not shown
light: B27 light with K122R, K177H
B35: F28 (antibody)
heavy: not shown
light: B27 light with K122R
B36: N11 (antibody)
heavy: not shown
light: EIVLTQSPGTLSLSPGERATLSCRASQNINNRFLAWYQQRPGQAPRLLIYAASSRATGVPDRFSGSGSGTDFTLTISRLEAEDFAMYHCQQYGSFPRTFGQGTMVDIKSGAPRFKTRPKAFVVSVGKDATLSSQIVGNPTPQVSWEKDQQPVAAGARFRLAQDGDLYRLKILDLALGDSGQYVSRARNAIGEAFACVGLQVDAEA
B37: N12 (antibody)
heavy: not shown
light: B36 light with K170H

The binders below were run against T3, hIL-5 (human, UniProt P05113 20-134) (assay: ELISA).
T3 construct: bought
Method: For an antibody targeting a soluble protein, the binding activity of the antibody against the soluble protein was detected by ELISA. […] After the blocking was completed, the blocking solution was discarded; and the plate was washed 3 times with a PBST buffer (pH 7.4, PBS containing 0.1% tween-20). 100 μL of the antibody solution diluted in a gradient was added to each well, and the mixture was incubated at 37° C. for 1 h. After the incubation was completed, the plate was washed 3 times with PBST. […] The plate was washed 3 times with PBST. […] The reaction was stopped by adding 50 μL of 1 M H₂SO₄ to each well. The absorbance values at 450 nm were read on a microplate reader, the binding curves of the antibodies to an antigen were fitted with software, and the EC₅₀ values were calculated.

EC50 [nM]	Binder
3.38	B1
4.26	B2
4.34	B3
2.61	B4
3.56	B5
4.89	B6
4.36	B7
3.3	B8
3.95	B9
3.84	B10
3.4	B11
2.86	B12
2.11	B13
2.1	B14
2.92	B15
2.7	B16

What follows are binders tested against T1, B7H3 on the recombinant cell line … (assay: FACS, CT26-B7H3 cells).

EC50 [nM]	Binder
3.69	B17
2.38	B18
3.9	B19
2	B20
1.9	B21
2.2	B22
3.4	B23
4.1	B24
2.4	B25
4.8	B26
2.4	B27
2.6	B28
1.92	B29
3.6	B30
1.2	B31
2.6	B32
3.4	B33
2.4	B34
2.4	B35

What follows are binders tested against T2, CEA on MKN45 cells (assay: FACS, MKN45 cells).

EC50 [nM]	Binder
5	B36
5.3	B37
